Test results as given in patent publication US20210155697A1 (UNITY BIOTECHNOLOGY, published 2021).

Legend:
[1] = molecular target: T1, human full-length Tie2 on cells (human, UniProt Q02763 23-1124); test: cell-based or functional assay
[2] = molecular target: T1, human full-length Tie2 on cells; test: flow cytometry on HUVEC; Apparent Kd (EC50 binding)
From the text: (§1) Briefly, expression plasmids containing the full-length Tie2 coding sequence for each species were used to transfect primary human endothelial cells (HUVECs) as well as human embryonic kidney (HEK293) cells. A stable cell population was selected by treating transfectants with puromycin antibiotic over the course of 2 weeks and single cell clones were generated using fluorescence activated cell sorting. Upon confirmation of cell surface expression of these Tie2 variants, cell lines were used to determine apparent Kd (EC50) values of anti-Tie2 antibodies on the various Tie2 proteins. […] Cells were labeled with decreasing concentrations of anti-Tie2 antibodies #1, #2, and #3 (10, 5, 2.5, 1, […], 0.63, 0.31, and 0.16 ug/mL) or non-specific hIgG1 antibody (10 ug/mL), followed by labeling with a rabbit anti-human IgG antibody conjugated to an Alexa Fluor 488 fluorophore (20 ug/ml). EC50 values were generated using ForeCyt™ software.

[3] = molecular target: T2, cynomolgus monkey full-length Tie2 on HEK293 cells (cynomolgus monkey, UniProt G7PS68 23-1124); test: flow cytometry on HEK293/Cyno Tie2 cells, mAb at 10 ug/mL
T2 construct: whole, on cells; also called HEK293/Cyno Tie2; HEK/cyno Tie2
From the text: as §1

[4] = molecular target: T1, human full-length Tie2 on cells; test: flow cytometry on HEK293/Human Tie2 cells, mAb at 10 ug/mL; parameters: unit not given here
From the text: as §1
Target sequence in this assay (Q02763 23-1124 limits assumed): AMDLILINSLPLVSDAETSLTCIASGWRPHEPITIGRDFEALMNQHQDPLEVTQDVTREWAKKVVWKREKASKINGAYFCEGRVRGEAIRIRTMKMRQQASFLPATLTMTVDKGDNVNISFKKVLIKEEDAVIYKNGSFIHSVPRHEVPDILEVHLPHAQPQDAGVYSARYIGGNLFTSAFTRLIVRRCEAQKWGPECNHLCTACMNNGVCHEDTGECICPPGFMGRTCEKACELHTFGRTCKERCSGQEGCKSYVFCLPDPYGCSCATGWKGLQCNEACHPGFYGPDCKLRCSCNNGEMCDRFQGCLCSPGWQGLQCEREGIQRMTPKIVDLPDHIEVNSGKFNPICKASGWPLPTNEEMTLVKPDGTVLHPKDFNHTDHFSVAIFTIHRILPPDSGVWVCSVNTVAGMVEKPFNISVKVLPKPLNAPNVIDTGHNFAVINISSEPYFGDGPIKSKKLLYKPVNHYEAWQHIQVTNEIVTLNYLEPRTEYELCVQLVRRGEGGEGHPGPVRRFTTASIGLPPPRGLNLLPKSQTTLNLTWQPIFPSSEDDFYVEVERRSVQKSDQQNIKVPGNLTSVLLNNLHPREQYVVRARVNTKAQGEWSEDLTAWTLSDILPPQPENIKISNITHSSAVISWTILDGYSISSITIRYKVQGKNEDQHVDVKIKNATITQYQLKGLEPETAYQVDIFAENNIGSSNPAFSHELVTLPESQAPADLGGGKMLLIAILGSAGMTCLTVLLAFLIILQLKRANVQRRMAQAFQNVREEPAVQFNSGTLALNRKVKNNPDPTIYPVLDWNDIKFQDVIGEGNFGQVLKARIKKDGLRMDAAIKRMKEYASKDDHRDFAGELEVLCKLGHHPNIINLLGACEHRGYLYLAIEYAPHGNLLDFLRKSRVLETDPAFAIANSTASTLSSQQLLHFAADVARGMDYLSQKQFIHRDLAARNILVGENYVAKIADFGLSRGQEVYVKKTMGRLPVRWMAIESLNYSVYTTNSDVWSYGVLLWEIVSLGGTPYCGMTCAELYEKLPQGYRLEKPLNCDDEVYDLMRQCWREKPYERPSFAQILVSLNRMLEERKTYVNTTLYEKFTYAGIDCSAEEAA

[5] = molecular target: T3, murine full-length Tie2 on HEK293 cells (mouse, UniProt Q02858 23-1122); test: flow cytometry on HEK293/Murine Tie2 cells, mAb at 10 ug/mL
T3 construct: whole, on cells; also called HEK293/Murine Tie2; HEK/mTie2
From the text: as §1
Target sequence in this assay (Q02858 23-1122): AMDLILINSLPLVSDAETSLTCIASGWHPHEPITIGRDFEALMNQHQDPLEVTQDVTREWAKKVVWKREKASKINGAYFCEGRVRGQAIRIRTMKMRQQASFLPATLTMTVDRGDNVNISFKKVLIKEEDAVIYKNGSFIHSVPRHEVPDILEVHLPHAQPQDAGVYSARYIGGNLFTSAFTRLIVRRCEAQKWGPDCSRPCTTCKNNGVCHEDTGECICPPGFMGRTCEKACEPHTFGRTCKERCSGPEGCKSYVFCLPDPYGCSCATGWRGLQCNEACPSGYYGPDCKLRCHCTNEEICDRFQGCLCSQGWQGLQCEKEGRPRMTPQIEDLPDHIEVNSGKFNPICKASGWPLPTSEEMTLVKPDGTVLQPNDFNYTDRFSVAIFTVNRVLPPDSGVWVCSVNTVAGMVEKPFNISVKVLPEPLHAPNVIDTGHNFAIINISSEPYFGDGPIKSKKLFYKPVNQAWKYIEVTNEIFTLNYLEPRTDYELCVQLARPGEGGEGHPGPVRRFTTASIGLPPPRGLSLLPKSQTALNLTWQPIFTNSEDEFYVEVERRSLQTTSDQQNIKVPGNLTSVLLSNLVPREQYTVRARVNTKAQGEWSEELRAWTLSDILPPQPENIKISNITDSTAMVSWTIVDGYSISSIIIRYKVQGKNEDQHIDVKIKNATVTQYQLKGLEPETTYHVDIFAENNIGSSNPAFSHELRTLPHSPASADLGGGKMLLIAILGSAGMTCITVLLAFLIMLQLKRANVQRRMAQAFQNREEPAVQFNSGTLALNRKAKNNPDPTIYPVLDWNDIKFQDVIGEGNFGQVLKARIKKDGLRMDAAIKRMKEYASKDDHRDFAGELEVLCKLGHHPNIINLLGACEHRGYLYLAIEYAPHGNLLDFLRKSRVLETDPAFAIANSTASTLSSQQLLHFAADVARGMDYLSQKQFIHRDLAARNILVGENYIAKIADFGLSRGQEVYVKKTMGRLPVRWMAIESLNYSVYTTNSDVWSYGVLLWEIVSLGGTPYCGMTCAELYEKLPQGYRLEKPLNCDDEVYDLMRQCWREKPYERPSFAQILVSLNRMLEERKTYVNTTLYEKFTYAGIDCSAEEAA

[6] = molecular target: T3, murine full-length Tie2 on HEK293 cells; test: flow cytometry on HEK/mTie2 cells; Apparent Kd (EC50 binding)
From the text: as §1

[7] = molecular target: T4, rabbit full-length Tie2 on HEK cells (rabbit); test: flow cytometry on HEK/RbTie2 cells; Apparent Kd (EC50 binding)
T4 chain: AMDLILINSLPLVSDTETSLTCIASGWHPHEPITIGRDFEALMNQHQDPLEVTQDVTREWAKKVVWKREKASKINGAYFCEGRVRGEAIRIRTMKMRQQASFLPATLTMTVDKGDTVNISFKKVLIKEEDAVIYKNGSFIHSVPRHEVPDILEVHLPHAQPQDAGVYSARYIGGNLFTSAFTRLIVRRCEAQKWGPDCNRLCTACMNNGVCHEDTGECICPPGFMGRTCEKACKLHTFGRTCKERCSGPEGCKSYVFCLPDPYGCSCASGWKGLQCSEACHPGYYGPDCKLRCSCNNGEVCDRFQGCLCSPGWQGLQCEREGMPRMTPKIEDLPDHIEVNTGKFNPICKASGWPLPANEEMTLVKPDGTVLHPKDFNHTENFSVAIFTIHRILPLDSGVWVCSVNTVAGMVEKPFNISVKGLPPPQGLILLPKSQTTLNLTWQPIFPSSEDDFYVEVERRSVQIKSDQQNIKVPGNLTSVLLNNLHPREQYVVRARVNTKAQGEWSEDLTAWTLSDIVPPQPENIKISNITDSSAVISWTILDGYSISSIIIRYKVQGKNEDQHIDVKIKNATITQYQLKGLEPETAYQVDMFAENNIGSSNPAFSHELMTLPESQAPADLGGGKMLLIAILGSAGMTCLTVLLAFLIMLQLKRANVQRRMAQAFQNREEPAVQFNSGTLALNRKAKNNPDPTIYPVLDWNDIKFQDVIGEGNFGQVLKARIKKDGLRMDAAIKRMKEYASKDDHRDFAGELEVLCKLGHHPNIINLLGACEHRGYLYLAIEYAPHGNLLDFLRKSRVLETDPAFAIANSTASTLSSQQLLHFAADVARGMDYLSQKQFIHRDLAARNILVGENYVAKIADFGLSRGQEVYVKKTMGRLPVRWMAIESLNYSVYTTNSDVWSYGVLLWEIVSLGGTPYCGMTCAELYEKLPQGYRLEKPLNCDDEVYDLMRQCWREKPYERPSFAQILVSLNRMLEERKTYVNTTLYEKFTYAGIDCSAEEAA
From the text: as §1

[8] = molecular target: T1, human full-length Tie2 on cells; test: flow cytometry on HEK/huTie2 cells; Apparent Kd (EC50 binding)
From the text: as §1

[9] = molecular target: T5, rat full-length Tie2 on HEK cells (rat, UniProt A0ABK0L6J5 19-1116); test: flow cytometry on HEK/ratTie2 cells; Apparent Kd (EC50 binding)
T5 construct: whole, on cells; also called HEK/ratTie2
From the text: as §1

[10] = molecular target: T2, cynomolgus monkey full-length Tie2 on …; test: flow cytometry on HEK/cyno Tie2 cells; Apparent Kd (EC50 binding)
From the text: as §1

EC50 of pAkt relative to total Akt in HUVEC cells (western blot, quantitative fluorescence imaging) [1]: 0.45 nM
EC50 [2]: 1.7 nM
Cross-Reactivity Screen (mAb at 10 ug/mL) [3]: 40.2
Cross-Reactivity Screen (mAb at 10 ug/mL) [4]: 40.2
Cross-Reactivity Screen (mAb at 10 ug/mL) [5]: 32.5
EC50 [6]: 6.3 nM
EC50 [7]: 3.3 nM
EC50 [8]: 1.9 nM
EC50 [9]: 4.6 nM
EC50 [10]: 3.7 nM
B1: human anti-Tie2 antibody #3 (antibody, V domains shown)
VH: DVQLVESGGGVVRPGESLRLSCTASGFTFDSYGMSWVRQAPGKGLEWVSSINVGDNTYYADSVRGRFIISRDSSRNTLYLQMNSLTAEDTAVYYCANWNSFFDYWGLGTLVTVSS
VL: EIVLTQSPGTLSLSPGEIATLSCRASQNVRSDLAWYQQKPGQAPRLLIYDASNRATGIPDRFSGSGSGTDFTLTISSLQSEDFAVYYCQQYSNWPPLTFGGGTKVEIK
notes: also called Ab #3; Antibody Clone # 3
